Assay results from article PMC6175577, “BRCT domains of the DNA damage checkpoint proteins TOPBP1/Rad4 display distinct specificities for phosphopeptide ligands” (eLife, 2018).

T1: Treslin pT969 fluorescein-labelled phosphopeptide
T1 chain: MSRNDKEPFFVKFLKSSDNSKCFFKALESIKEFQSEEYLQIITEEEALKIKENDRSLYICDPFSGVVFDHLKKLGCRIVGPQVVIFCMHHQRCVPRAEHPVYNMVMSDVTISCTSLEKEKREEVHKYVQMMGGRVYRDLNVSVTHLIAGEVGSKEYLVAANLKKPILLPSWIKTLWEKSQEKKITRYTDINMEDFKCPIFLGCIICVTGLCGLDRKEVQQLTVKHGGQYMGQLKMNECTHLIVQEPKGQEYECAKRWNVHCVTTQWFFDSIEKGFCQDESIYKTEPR

T2: Treslin pS1001 fluorescein-labelled phosphopeptide
T2 chain: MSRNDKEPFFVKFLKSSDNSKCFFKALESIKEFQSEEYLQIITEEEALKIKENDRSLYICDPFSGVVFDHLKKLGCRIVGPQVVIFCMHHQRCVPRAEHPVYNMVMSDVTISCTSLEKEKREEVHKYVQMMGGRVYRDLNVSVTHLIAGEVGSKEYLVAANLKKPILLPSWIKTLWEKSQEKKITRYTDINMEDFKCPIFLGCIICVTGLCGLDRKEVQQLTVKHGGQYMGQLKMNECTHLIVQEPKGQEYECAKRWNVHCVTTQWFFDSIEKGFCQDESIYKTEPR

T3: Treslin pT969 fluorescein-labelled phosphopeptide
T3 chain: GYGLTKSVAETPVHKQIS

T4: Treslin pS1001 fluorescein-labelled phosphopeptide
T4 chain: GYGDIGVVEESPEKGDEI

T5: Mdb1 pT113 fluorescein-labelled phosphopeptide
T5 chain: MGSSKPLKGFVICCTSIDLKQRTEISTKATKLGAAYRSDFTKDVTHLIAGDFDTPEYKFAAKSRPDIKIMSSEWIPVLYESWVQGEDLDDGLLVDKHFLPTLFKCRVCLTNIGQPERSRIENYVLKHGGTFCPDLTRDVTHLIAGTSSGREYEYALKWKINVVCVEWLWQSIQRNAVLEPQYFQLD

T6: Mdb1 pT113 fluorescein-labelled phosphopeptide
T6 chain: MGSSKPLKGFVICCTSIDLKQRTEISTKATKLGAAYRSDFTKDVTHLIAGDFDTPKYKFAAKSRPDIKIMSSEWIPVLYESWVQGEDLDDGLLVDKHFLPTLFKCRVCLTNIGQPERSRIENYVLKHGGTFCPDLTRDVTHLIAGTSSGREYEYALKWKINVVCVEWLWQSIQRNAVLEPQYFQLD


What was measured:
Assay in all cases: fluorescence polarisation
[1] = target: T1, Treslin pT969 fluorescein-labelled …; settings: chain shown with the change; point at 40 µM protein; parent: est. 70; read off a plot
[2] = target: T2, Treslin pS1001 fluorescein-labelled …; settings: chain shown with the change; point at 40 µM protein; parent: est. 83; read off a plot
[3] = target: T3, Treslin pT969 fluorescein-labelled …; settings: for response: chain shown with the change, point at 40 µM protein, parent: est. 70, read off a plot
[4] = target: T4, Treslin pS1001 fluorescein-labelled …; settings: for response: chain shown with the change, point at 40 µM protein, parent: est. 83, read off a plot; for Kd: chain shown with the change;, parent: 0.60 ± 0.03 µM
[5] = target: T5, Mdb1 pT113 fluorescein-labelled …; settings: chain shown with the change; point at 40 µM protein; parent: est. 140; read off a plot
[6] = target: T6, Mdb1 pT113 fluorescein-labelled …; settings: chain shown with the change; point at 40 µM protein; parent: est. 140; read off a plot

response [3]	response [4]	Kd [4]	Binder	further results
–	–	–	GYGLTKSVAETPVHKQIS	response [1]: 0 millidegrees
–	–	–	GYGDIGVVEESPEKGDEI	response [2]: 12 millidegrees
30 millidegrees	41 millidegrees	350 nM	TOPBP1-BRCT0,1,2 segment, wild type (recombinant, fluorescence polarisation) K250E (protein) MSRNDKEPFFVKFLKSSDNSKCFFKALESIKEFQSEEYLQIITEEEALKIKENDRSLYICDPFSGVVFDHLKKLGCRIVGPQVVIFCMHHQRCVPRAEHPVYNMVMSDVTISCTSLEKEKREEVHKYVQMMGGRVYRDLNVSVTHLIAGEVGSKKYLVAANLKKPILLPSWIKTLWEKSQEKKITRYTDINMEDFKCPIFLGCIICVTGLCGLDRKEVQQLTVKHGGQYMGQLKMNECTHLIVQEPKGQEYECAKRWNVHCVTTQWFFDSIEKGFCQDESIYKTEPR	–
46 millidegrees	68 millidegrees	730 nM	TOPBP1-BRCT0,1,2 segment, wild type (recombinant, fluorescence polarisation) K155E (protein) MSRNDKEPFFVKFLKSSDNSKCFFKALESIKEFQSEEYLQIITEEEALKIKENDRSLYICDPFSGVVFDHLKKLGCRIVGPQVVIFCMHHQRCVPRAEHPVYNMVMSDVTISCTSLEKEKREEVHKYVQMMGGRVYRDLNVSVTHLIAGEVGSKEYLVAANLKKPILLPSWIKTLWEKSQEKKITRYTDINMEDFKCPIFLGCIICVTGLCGLDRKEVQQLTVKHGGQYMGQLKMNECTHLIVQEPKGQKYECAKRWNVHCVTTQWFFDSIEKGFCQDESIYKTEPR	Kd ([3]; chain shown with the change;, parent: 0.94 ± 0.06 µM): 1000 nM
–	–	–	GYGGVMTVPNTPQKPNLQ [Rad4-BRCT1,2 segment, wild type (recombinant, fluorescence polarisation), P32372 K56E; K151E]	response [5]: 30 millidegrees
–	–	–	GYGGVMTVPNTPQKPNLQ [Rad4-BRCT1,2 segment, wild type (recombinant, fluorescence polarisation), P32372 K151E]	response [6]: 92 millidegrees
